# Measured values reported in US20100317083A1.
# How the values were obtained:
# [1] = molecular target: human IgG3 purified from human plasma (human) (UniProt P01860); assay: cell-based or functional assay
# [2] = molecular target: human IgG3 purified from human plasma (human) (UniProt P01860); assay: SPR (BIAcore), IgG3 immobilized, EndoS(E235Q) injected, deglycosylated IgG flow cell as reference
# Chain of UniProt P01860 (P01860 whole entry, form in doubt): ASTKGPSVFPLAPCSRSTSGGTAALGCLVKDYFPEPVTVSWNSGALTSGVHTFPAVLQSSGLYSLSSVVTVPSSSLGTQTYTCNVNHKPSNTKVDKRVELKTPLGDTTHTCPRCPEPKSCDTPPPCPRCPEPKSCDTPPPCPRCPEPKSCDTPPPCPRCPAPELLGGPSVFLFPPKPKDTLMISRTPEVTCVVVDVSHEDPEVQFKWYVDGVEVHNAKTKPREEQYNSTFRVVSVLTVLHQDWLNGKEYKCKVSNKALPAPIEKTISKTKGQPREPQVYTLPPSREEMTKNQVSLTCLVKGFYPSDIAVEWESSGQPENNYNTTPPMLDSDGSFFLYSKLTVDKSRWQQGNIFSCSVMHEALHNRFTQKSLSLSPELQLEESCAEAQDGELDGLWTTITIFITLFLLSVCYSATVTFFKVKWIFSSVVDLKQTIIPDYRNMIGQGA
Substance,SDS-PAGE migration of IgG after incubation with EndoS; LCA lectin blot [1],Kd [2],koff [2],kon [2]
"EndoS (Endoglycosidase S) from S. pyogenes AP1, recombinant, without GST (from UniProt Q99Y92 37-995) (enzyme)",3 kDa,–,–,–
"EndoS(E235Q), modified EndoS polypeptide lacking IgG endoglycosidase activity (from UniProt Q99Y92 37-995) (enzyme)",–,83 nM,0.0089 s⁻¹,107000 M⁻¹ s⁻¹
